US20230357342A1 (published 2023)
Residue numbers refer to the chain shown, from its start. Numbers in names are those of the source.

B1: modified IL-18 polypeptide SEQ ID NO: 30 (E6K, V11I, C38A, K53A, T63A, C76A, C127A) (ligand)
chain: YFGKLKSKLSIIRNLNDQVLFIDQGNRPLFEDMTDSDARDNAPRTIFIISMYADSQPRGMAVAISVKCEKISTLSAENKIISFKEMNPPDNIKDTKSDIIFFQRSVPGHDNKMQFESSSYEGYFLAAEKERDLFKLILKKEDELGDRSIMFTVQNED
B2: modified IL-18 polypeptide SEQ ID NO: 238 (E6K, V11I, C38A, K53A, T63A, C76A, C127A, V153Y) (ligand)
chain: B1 chain with V153Y
B3: modified IL-18 polypeptide SEQ ID NO: 229 (V11I, C38A, C76A, S105K, C127A) (ligand)
chain: B1 chain with K6E, A53K, A63T, S105K
B4: modified IL-18 polypeptide SEQ ID NO: 219 (V11I, C38A, K53A, C76A, G108A, C127A) (ligand)
chain: B1 chain with K6E, A63T, G108A
B5: modified IL-18 polypeptide SEQ ID NO: 234 (E6K, V11I, C38A, K53A, T63A, C76A, Q103R, C127A) (ligand)
chain: B1 chain with Q103R
B6: modified IL-18 polypeptide SEQ ID NO: 228 (V11I, C38A, C76A, S105I, C127A) (ligand)
chain: B1 chain with K6E, A53K, A63T, S105I
B7: modified IL-18 polypeptide SEQ ID NO: 237 (E6K, V11I, C38A, K53A, T63A, C76A, C127A, V153E) (ligand)
chain: B1 chain with V153E
B8: modified IL-18 polypeptide SEQ ID NO: 217 (V11I, C38A, N41A, K53A, C76A, C127A) (ligand)
chain: B1 chain with K6E, N41A, A63T
B9: modified IL-18 polypeptide SEQ ID NO: 207 (V11I, C38A, M51G, K53A, C76A, C127A) (ligand)
chain: B1 chain with K6E, M51G, A63T
B10: modified IL-18 polypeptide SEQ ID NO: 210 (V11I, E31A, C38A, K53A, C76A, C127A) (ligand)
chain: B1 chain with K6E, E31A, A63T
B11: modified IL-18 polypeptide SEQ ID NO: 235 (E6K, K8E, V11I, C38A, K53A, T63A, C76A, Q103R, C127A) (ligand)
chain: B1 chain with K8E, Q103R
B12: modified IL-18 polypeptide SEQ ID NO: 223 (K8E, V11I, C38A, C76A, Q103R, C127A) (ligand)
chain: B1 chain with K6E, K8E, A53K, A63T, Q103R
B13: modified IL-18 polypeptide SEQ ID NO: 216 (V11I, C38A, D40A, K53A, C76A, C127A) (ligand)
chain: B1 chain with K6E, D40A, A63T
B14: modified IL-18 polypeptide SEQ ID NO: 209 (F2A, V11I, C38A, K53A, C76A, C127A) (ligand)
chain: B1 chain with F2A, K6E, A63T
B15: modified IL-18 polypeptide SEQ ID NO: 204 (V11I, C38A, K53A, C76A, C127A) (ligand)
chain: B1 chain with K6E, A63T
B16: modified IL-18 polypeptide SEQ ID NO: 221 (V11I, C38A, K53A, C76A, D110A, C127A) (ligand)
chain: B1 chain with K6E, A63T, D110A
B17: modified IL-18 polypeptide SEQ ID NO: 243 (Y1M, E6K, V11I, C38A, K53A, T63A, C76A, C127A) (ligand)
chain: B1 chain with Y1M
B18: modified IL-18 polypeptide SEQ ID NO: 240 (E6R, V11I, C38A, K53A, T63A, C76A, C127A) (ligand)
chain: B1 chain with K6R
B19: modified IL-18 polypeptide SEQ ID NO: 214 (V11I, D37A, C38A, K53A, C76A, C127A) (ligand)
chain: B1 chain with K6E, D37A, A63T
B20: modified IL-18 polypeptide SEQ ID NO: 230 (K8L, E6K, V11I, C38A, K53A, T63A, C76A, C127A) (ligand)
chain: B1 chain with K8L
B21: modified IL-18 polypeptide SEQ ID NO: 213 (V11I, S36A, C38A, K53A, C76A, C127A) (ligand)
chain: B1 chain with K6E, S36A, A63T
B22: modified IL-18 polypeptide SEQ ID NO: 225 (V11I, C38A, S55H, C76A, C127A) (ligand)
chain: B1 chain with K6E, A53K, S55H, A63T
B23: modified IL-18 polypeptide SEQ ID NO: 233 (E6K, V11I, C38A, I49R, K53A, T63A, C76A, C127A) (ligand)
chain: B1 chain with I49R
B24: modified IL-18 polypeptide SEQ ID NO: 208 (V11I, C38A, K53A, D54A, C76A, C127A) (ligand)
chain: B1 chain with K6E, D54A, A63T
B25: modified IL-18 polypeptide SEQ ID NO: 218 (V11I, C38A, K53A, C76A, C127A, D132A) (ligand)
chain: B1 chain with K6E, A63T, D132A
B26: modified IL-18 polypeptide SEQ ID NO: 215 (V11I, E31A, D37A, C38A, K53A, C76A, C127A) (ligand)
chain: B1 chain with K6E, E31A, D37A, A63T
B27: modified IL-18 polypeptide SEQ ID NO: 224 (V11I, C38A, C76A, Q103K, C127A) (ligand)
chain: B1 chain with K6E, A53K, A63T, Q103K
B28: modified IL-18 polypeptide SEQ ID NO: 206 (V11I, C38A, K53A, S55A, C76A, C127A) (ligand)
chain: B1 chain with K6E, S55A, A63T
B29: modified IL-18 polypeptide SEQ ID NO: 212 (V11I, D35A, C38A, K53A, C76A, C127A) (ligand)
chain: B1 chain with K6E, D35A, A63T
B30: modified IL-18 polypeptide SEQ ID NO: 220 (V11I, C38A, K53A, C76A, H109A, C127A) (ligand)
chain: B1 chain with K6E, A63T, H109A
B31: modified IL-18 polypeptide SEQ ID NO: 232 (E6K, V11I, C38A, I49M, K53A, T63A, C76A, C127A) (ligand)
chain: B1 chain with I49M
B32: modified IL-18 polypeptide SEQ ID NO: 211 (V11I, T34A, C38A, K53A, C76A, C127A) (ligand)
chain: B1 chain with K6E, T34A, A63T
B33: modified IL-18 polypeptide SEQ ID NO: 222 (K8R, V11I, C38A, C76A, Q103E, C127A) (ligand)
chain: B1 chain with K6E, K8R, A53K, A63T, Q103E
B34: modified IL-18 polypeptide SEQ ID NO: 227 (V11I, C38A, S55T, C76A, C127A) (ligand)
chain: B1 chain with K6E, A53K, S55T, A63T
B35: modified IL-18 polypeptide SEQ ID NO: 239 (E6K, V11I, C38A, M51G, K53A, T63A, C76A, C127A) (ligand)
chain: B1 chain with M51G
B36: modified IL-18 polypeptide SEQ ID NO: 205 (V11I, C38A, K53A, T63A, C76A, C127A) (ligand)
chain: B1 chain with K6E
B37: modified IL-18 polypeptide SEQ ID NO: 226 (V11I, C38A, S55R, C76A, C127A) (ligand)
chain: B1 chain with K6E, A53K, S55R, A63T
B38: modified IL-18 polypeptide SEQ ID NO: 61 (E6K, C38A, K53A, C76A) (ligand)
chain: B1 chain with I11V, A63T, A127C
B39: modified IL-18 polypeptide SEQ ID NO: 59 (E6K, C38A, K53A) (ligand)
chain: B1 chain with I11V, A63T, A76C, A127C
B40: modified IL-18 polypeptide SEQ ID NO: 63 (E6K, C38A, K53A, C76A, C127A) (ligand)
chain: B1 chain with I11V, A63T
B41: modified IL-18 polypeptide SEQ ID NO: 62 (E6K, C38A, K53A, C127A) (ligand)
chain: B1 chain with I11V, A63T, A76C
B42: modified IL-18 polypeptide SEQ ID NO: 60 (E6K, C38Q, K53A) (ligand)
chain: B1 chain with I11V, A38Q, A63T, A76C, A127C
B43: modified IL-18 polypeptide SEQ ID NO: 241 (N-terminal 4xG, E6K, V11I, C38A, K53A, T63A, C76A, C127A) (ligand)
chain: GGGGYFGKLKSKLSIIRNLNDQVLFIDQGNRPLFEDMTDSDARDNAPRTIFIISMYADSQPRGMAVAISVKCEKISTLSAENKIISFKEMNPPDNIKDTKSDIIFFQRSVPGHDNKMQFESSSYEGYFLAAEKERDLFKLILKKEDELGDRSIMFTVQNED
B44: modified IL-18 polypeptide SEQ ID NO: 242 (N-terminal G, E6K, V11I, C38A, K53A, T63A, C76A, C127A) (ligand)
chain: GYFGKLKSKLSIIRNLNDQVLFIDQGNRPLFEDMTDSDARDNAPRTIFIISMYADSQPRGMAVAISVKCEKISTLSAENKIISFKEMNPPDNIKDTKSDIIFFQRSVPGHDNKMQFESSSYEGYFLAAEKERDLFKLILKKEDELGDRSIMFTVQNED

Target: T1, IL-18 receptor on HEK-Blue IL18R reporter cells (UniProt Q13478 19-541; O95256 20-599, limits assumed)
T1 sequence (looked up) 1: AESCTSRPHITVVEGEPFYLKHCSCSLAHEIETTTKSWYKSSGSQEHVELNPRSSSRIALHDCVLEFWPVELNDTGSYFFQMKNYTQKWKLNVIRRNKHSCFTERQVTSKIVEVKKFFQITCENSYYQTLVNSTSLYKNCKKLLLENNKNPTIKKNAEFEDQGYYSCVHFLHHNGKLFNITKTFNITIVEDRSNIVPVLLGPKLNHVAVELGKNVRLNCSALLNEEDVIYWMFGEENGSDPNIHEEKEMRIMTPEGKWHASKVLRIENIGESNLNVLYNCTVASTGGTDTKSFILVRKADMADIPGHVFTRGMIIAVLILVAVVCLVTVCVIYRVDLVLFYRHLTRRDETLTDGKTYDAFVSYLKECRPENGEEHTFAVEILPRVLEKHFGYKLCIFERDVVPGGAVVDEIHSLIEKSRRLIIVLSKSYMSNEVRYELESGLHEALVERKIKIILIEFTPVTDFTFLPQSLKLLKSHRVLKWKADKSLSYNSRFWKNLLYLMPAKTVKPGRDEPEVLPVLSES
T1 sequence (looked up) 2: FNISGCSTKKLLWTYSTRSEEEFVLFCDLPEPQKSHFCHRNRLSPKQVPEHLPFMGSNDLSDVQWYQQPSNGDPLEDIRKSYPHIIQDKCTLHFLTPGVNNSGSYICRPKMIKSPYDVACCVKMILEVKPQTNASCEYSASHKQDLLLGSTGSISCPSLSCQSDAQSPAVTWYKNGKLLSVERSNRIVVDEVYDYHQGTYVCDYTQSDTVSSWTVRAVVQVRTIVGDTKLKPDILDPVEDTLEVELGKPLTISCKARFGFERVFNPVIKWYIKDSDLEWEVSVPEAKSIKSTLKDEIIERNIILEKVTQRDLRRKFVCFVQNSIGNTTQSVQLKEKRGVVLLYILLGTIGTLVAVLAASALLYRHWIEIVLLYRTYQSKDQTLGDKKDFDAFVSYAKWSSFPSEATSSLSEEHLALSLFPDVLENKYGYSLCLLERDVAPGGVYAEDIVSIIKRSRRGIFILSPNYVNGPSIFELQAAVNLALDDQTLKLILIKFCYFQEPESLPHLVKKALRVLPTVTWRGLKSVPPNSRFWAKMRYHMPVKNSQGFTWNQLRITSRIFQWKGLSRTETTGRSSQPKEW
Assay: cell-based or functional assay

Binder | EC50, HEK-Blue IL18R reporter (SEAP)
B1 | 0.053 nM
B2 | 0.08 nM
B3 | 7.73 nM
B4 | 15.6 nM
B5 | 0.26 nM
B6 | 5.37 nM
B7 | 0.1 nM
B8 | 11.7 nM
B9 | 0.8 nM
B10 | 6.6 nM
B11 | 0.4 nM
B12 | 2.3 nM
B13 | 0.52 nM
B14 | 7.28 nM
B15 | 0.98 nM
B16 | 2.02 nM
B17 | 0.02 nM
B18 | 0.04 nM
B19 | 14.1 nM
B20 | 0.29 nM
B21 | 0.25 nM
B22 | 3.14 nM

Binder | EC50, HEK-Blue IL18R reporter (SEAP)
B23 | 0.04 nM
B24 | 1 nM
B25 | 1.95 nM
B26 | 11.9 nM
B27 | 1.5 nM
B28 | 3.63 nM
B29 | 13.1 nM
B30 | 19.5 nM
B31 | 0.07 nM
B32 | 0.7 nM
B33 | 2.01 nM
B34 | 4.73 nM
B35 | 0.1 nM
B36 | 0.17 nM
B37 | 1.91 nM
B38 | 0.084 nM
B39 | 0.268 nM
B40 | 0.0139 nM
B41 | 0.17 nM
B42 | 0.203 nM
B43 | 2.5 nM
B44 | 1.68 nM
